{
  "source": "patent US8709741B2",
  "about": "“Methods of diagnosing a plasmodium infection” (priority 2009, dated 2014)",
  "key": {"[1]": {"system": "P. falciparum-infected erythrocytes", "experiment": "GX sPLA2 lipolysis of infected red blood cells, young and mature stages (NEFA)", "format": "cell-based, human", "conditions": "no serum, 5 h at 37° C.", "description": "A semi-synchronous culture of P. falciparum (2.5% parasitaemia) was analysed for sensitivity to GX sPLA2 at early and late development stages. Parasitaemia and stage distribution were determined from Diff-Quick-stained smears. Early stages were processed at t 0 h and late stages were processed 24 h later (t 24 h). Cultures were washed and cells were re-suspended at 50% haematocrit in RPMI 0.05% BSA, and then distributed into wells of a 96-well microplate in the presence or absence of respectively 30.0 nM of GX sPLA2 and 0.2 nM of bee venom sPLA2. Non-infected erythrocytes and human serum were processed similarly, after all samples had been adjusted for same phosphatidylcholine (PC) content. […] NEFAs in each sample were measured in triplicate using the NEFA-C kit (WAKO). […]\nA parasite culture was enriched in young parasite stages (rings+early trophozoites) by sorbitol treatment. Parasitaemia (2.5-3%) and stage distribution were determined from Diff-Quick staining of culture smears. […] NEFAs in erythrocyte samples are expressed as the sum of NEFAs from ghosts and corresponding supernatant.\nThe membranolytic activity of the recombinant GX sPLA2 on RBCs infected by either young (ring/young trophozoite) or mature (late trophozoite/schizont) parasites was analysed. […] Parasite cultures were incubated with GX sPLA2 in the absence of serum for 5 h and NEFA production was measured thereafter. […]"}, "[2]": {"experiment": "Specific activities of sPLA2s on human plasma (NEFA release, NEFA-C kit)", "format": "biochemical", "description": "Kinetic analysis of human plasma hydrolysis by sPLA2s was performed by mixing on ice 50 μL of crude plasma with recombinant sPLA2s at various final concentrations (respectively 2×, 5× and 10× the IC50 value). At time zero, the mixture was transferred to 37° C. Samples (7 μL) were taken after 5, 15, 30 and 60 minutes of incubation and quickly frozen at −20° C. An aliquot of plasma without enzyme was similarly processed. Concentration of non-esterified fatty acids (NEFAs) in each sample was measured by a discontinuous enzymatic method using the NEFA-C test kit from WAKO, following manufacturer's instructions. The amount of NEFAs in each enzyme-containing plasma sample was subtracted for NEFAs in enzyme-free plasma sample. Specific activity for each of the sPLA2s was determined from the linear part of the curve [NEFA]=f(t). Experiment was repeated three times with plasmas from different donors and different batches of sPLA2s.\nSpecific activities of sPLA2s on human plasma. Hydrolysis of plasma phospholipids by human and venom sPLA2s was assayed using different incubation times and enzymes concentrations. Hydrolysis was assessed by measuring the amount of NEFAs in samples using the colorimetric assay developed by WAKO (NEFA-C kit). Enzymatic production of NEFAs was corrected for endogenous production of NEFAs measured in the absence of sPLA2. Specific activity for each of the sPLA2s was determined from the linear part of the kinetic curve. Values are the mean of three independent experiments. SD: standard deviation. Anti-P. falciparum activities (IC50) of the respective sPLA2s are given for comparison."}},
  "data": [
    {"molecule": "X: recombinant human group X secreted phospholipase A2 (protein, UniProt O15496 43-165, looked up) Group 10 secretory …: GILELAGTVGCVGPRTPIAYMKYGCFCGLGGHGQPRDAIDWCCHGHDCCYTRAEEAGCSPKTERYSWQCVNQSVLCGPAENKCQELLCKCDQEIANCLAQTEYNLKYLFYPQFLCEPDSPKCD", "values": [
      {"measurement": "membranolytic activity on healthy (non-infected) erythrocytes", "setting": "[1]; 30 nM", "result": "left intact"},
      {"measurement": "membranolytic activity on parasite culture erythrocytes (NEFA release, words)", "setting": "[1]; GX 30 nM, bee venom 0.2 nM", "result": "induced the release of NEFAs from the parasite culture with predominance for the schizont stages"},
      {"measurement": "activity on plasma relative to GIIF sPLA2", "setting": "[2]; ratio of specific activities", "result": 9, "unit": "times"},
      {"measurement": "activity on plasma relative to GV sPLA2", "setting": "[2]; ratio of specific activities", "result": 30, "unit": "times"},
      {"measurement": "Specific activity ± SD (μmol NEFA/min × mg enzyme)", "setting": "[2]; whole human plasma, 37° C., linear part of kinetic curve, mean of three experiments", "result": "8.23 ± 0.92", "unit": "μmol NEFA/min × mg enzyme"}
    ]}
  ]
}
